Data: patent US20240076360A1 (University of Pennsylvania, published 2024)

Tests used:
rat C5 = target: T1, rat C5 (rat, UniProt P08650 19-1681, limits assumed); assay: ELISA, wells coated with recombinant C5 (3 ug/ml), serially diluted antibody, detection with HRP anti-IgG4 Fc, OD450
T1 construct: also called recombinant rat C5 protein
Procedure: (§1) ELISA wells were coated with recombinant C5 protein of relevant species (3 μg/ml in coating buffer, 100 μl/well, 4° C. overnight). […] Sheep RBC lysis assay was performed as described in Example 3, using 5-20% cynomolgus monkey serum.

mouse C5 = target: T2, mouse C5 (mouse, UniProt P06684 19-1680, limits assumed); assay: as above
T2 construct: also called recombinant mouse C5 protein
Procedure: as §1

rabbit C5 = target: T3, rabbit C5 (rabbit, UniProt G1SPF9 19-673; G1SPF9 678-1675); assay: as above
T3 construct: also called recombinant rabbit C5 protein
Procedure: as §1

cynomolgus monkey C5 = target: T4, cynomolgus monkey C5 (cynomolgus monkey); assay: ELISA, recombinant C5 coated at 3 µg/ml, serially diluted antibody, HRP anti-IgG4 Fc detection
T4 construct: also called cyno C5; cyno monkey C5
Procedure: as §1

T2 sequence (P06684 19-1680 limits assumed): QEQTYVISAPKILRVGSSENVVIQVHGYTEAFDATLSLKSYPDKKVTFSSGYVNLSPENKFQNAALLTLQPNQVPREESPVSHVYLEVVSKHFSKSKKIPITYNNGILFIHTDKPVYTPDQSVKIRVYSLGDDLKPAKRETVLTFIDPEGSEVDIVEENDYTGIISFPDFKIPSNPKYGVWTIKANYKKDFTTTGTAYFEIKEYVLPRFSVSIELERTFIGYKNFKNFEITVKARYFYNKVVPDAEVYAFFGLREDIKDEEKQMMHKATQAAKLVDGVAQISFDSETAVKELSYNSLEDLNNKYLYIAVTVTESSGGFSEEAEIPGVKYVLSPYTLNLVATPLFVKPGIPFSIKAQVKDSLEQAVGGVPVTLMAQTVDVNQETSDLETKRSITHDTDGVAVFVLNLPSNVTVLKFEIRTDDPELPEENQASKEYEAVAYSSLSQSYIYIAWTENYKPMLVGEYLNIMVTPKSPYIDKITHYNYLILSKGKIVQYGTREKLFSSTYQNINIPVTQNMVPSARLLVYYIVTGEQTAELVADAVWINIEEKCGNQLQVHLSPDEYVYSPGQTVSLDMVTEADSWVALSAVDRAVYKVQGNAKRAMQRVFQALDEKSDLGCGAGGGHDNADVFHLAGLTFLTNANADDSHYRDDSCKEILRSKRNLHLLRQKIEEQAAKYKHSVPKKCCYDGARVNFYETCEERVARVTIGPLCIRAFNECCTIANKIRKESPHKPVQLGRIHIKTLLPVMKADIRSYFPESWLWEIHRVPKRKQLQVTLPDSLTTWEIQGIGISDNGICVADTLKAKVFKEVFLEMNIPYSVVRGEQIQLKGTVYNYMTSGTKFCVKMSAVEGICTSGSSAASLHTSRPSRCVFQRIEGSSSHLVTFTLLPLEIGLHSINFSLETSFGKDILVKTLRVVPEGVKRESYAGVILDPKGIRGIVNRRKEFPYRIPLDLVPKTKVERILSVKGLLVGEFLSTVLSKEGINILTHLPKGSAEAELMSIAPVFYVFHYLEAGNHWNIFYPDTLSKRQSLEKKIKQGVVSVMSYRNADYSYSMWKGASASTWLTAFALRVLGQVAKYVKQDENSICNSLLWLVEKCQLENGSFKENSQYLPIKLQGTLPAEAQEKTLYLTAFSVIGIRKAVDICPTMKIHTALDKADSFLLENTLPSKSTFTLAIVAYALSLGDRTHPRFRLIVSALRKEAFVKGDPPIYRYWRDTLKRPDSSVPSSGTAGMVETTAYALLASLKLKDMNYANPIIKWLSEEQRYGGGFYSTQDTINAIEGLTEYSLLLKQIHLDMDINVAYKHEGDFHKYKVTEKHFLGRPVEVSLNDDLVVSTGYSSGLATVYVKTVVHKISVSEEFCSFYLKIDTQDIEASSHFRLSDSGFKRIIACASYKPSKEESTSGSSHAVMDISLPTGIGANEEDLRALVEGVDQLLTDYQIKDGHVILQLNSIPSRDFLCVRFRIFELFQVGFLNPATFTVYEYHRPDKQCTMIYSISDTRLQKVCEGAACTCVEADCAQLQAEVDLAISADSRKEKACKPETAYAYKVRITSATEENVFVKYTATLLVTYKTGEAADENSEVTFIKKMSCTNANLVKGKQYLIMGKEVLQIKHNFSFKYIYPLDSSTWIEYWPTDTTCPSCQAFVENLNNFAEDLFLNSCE
T3 sequence (beta, as listed by the source limits assumed, chain 1 of 2): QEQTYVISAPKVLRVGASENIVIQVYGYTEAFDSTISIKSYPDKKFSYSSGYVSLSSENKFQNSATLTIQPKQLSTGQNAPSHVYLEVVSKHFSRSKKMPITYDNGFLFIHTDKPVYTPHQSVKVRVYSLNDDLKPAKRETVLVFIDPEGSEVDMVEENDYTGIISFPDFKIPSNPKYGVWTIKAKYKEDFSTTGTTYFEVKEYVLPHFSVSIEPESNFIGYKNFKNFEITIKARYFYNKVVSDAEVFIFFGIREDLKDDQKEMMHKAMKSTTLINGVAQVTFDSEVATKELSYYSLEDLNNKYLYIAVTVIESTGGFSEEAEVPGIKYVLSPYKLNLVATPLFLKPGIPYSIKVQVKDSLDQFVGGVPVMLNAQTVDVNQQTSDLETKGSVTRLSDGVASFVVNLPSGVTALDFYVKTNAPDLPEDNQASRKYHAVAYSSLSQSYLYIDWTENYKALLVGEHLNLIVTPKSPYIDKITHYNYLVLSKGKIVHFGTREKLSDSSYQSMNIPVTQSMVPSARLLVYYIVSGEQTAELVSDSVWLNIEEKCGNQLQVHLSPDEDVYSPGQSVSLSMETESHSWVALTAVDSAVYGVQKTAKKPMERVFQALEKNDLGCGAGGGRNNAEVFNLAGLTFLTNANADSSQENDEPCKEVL
T3 sequence (alpha, as listed by the source limits assumed, chain 2 of 2): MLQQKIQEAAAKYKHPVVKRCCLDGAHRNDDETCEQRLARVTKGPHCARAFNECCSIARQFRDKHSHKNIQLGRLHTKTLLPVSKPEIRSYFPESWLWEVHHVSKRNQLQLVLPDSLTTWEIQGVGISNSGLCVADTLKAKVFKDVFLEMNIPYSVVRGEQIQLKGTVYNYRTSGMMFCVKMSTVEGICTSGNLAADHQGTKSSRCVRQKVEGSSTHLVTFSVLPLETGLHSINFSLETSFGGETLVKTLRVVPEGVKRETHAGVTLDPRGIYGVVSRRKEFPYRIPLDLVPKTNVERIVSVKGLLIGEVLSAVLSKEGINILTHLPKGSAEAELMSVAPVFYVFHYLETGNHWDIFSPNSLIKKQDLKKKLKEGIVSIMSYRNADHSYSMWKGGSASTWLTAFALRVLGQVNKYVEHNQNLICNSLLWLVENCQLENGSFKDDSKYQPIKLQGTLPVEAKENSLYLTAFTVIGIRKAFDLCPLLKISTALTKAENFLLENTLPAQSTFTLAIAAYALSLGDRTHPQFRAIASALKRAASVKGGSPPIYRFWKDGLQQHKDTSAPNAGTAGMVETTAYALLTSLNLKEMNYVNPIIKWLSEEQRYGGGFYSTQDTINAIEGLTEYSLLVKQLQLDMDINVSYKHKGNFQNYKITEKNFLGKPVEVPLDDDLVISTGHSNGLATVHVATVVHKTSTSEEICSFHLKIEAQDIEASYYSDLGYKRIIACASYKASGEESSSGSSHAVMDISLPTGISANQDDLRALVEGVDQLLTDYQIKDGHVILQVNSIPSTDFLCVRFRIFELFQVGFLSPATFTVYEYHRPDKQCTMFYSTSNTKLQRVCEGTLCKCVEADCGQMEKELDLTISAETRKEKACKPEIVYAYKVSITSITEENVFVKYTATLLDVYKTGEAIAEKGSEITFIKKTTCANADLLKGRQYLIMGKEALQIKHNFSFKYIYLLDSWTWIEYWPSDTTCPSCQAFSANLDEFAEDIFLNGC
T1 sequence (P08650 19-1681 limits assumed): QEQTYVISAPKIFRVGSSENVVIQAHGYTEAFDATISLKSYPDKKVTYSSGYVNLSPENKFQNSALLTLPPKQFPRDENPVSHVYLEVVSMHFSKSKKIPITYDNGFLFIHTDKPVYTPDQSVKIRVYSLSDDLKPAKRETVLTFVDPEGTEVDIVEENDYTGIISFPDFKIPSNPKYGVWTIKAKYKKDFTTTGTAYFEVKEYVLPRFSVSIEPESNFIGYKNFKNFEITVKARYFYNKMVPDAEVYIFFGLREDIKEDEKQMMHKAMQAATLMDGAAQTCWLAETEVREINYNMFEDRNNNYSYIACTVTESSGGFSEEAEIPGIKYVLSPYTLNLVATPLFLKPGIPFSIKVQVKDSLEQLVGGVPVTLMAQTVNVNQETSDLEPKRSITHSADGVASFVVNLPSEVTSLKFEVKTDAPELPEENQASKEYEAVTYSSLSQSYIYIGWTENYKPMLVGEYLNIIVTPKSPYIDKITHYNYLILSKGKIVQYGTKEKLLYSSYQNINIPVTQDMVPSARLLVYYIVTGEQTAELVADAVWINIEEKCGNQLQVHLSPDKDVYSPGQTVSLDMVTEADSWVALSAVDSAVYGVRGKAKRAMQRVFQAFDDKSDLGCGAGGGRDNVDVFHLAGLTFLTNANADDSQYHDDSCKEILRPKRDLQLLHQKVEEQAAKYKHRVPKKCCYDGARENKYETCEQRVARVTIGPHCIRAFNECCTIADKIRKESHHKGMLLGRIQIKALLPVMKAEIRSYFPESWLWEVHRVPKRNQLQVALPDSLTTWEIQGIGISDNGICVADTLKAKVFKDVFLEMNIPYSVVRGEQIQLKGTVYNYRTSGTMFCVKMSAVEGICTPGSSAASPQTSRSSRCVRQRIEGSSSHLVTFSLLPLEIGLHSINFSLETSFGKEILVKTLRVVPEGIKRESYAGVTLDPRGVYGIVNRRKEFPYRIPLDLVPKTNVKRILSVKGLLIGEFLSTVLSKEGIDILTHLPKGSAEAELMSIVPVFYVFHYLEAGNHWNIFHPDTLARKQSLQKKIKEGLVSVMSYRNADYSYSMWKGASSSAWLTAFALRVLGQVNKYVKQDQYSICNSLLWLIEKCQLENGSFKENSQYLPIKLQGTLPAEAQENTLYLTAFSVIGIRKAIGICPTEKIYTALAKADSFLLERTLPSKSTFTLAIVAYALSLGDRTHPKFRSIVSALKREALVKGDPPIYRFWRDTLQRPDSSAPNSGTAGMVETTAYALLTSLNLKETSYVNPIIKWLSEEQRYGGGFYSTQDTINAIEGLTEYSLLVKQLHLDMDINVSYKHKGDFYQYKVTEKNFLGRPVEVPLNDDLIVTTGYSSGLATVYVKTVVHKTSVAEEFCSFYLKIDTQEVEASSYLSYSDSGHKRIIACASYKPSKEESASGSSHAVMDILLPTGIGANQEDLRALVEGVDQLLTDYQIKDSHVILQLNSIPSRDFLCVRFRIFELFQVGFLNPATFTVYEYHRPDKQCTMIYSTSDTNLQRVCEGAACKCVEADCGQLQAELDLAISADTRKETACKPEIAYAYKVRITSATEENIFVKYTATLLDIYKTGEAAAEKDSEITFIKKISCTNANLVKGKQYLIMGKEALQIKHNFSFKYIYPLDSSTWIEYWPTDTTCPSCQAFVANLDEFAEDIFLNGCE

B1: Y32H/Q38R/L54H anti-C5 mAb (antibody, human IgG4 S228P, V domains shown)
VH: QVQLVQSGAEVKKPGASVKVSCKASGYIFSNHWIQWVRQAPGQGLEWMGEILPGSGSTEYTENFKDRVTMTRDTSTSTVYMELSSLRSEDTAVYYCARYFFGSSPNWYFDVWGQGTLVTVSS
VL: DIQMTQSPSSLSASVGDRVTITCGASENIYGALNWYQRKPGKAPKLLIYGATNHADGVPSRFSGSGSGTDFTLTISSLQPEDFATYYCQNVLNTPLTFGQGTKVEIK
B1: no binding (rat C5); no binding (mouse C5); no binding (rabbit C5). For the same binder, the EC50 (cynomolgus monkey C5) was ~0.2 mg/L.
